In FireProtDB (doi:10.1021/bi982427c):

B1: Acyl-CoA-binding protein, P07107 (parent)
chain: MSQAEFDKAAEEVKHLKTKPADEEMLFIYSHYKQATVGDINTERPGMLDFKGKAKWDAWNELKGTSKEDAMKAYIDKVEELKKKYGI

Variants of: B1
Conditions: Bos taurus; pH 5.3; 5 °C; GdnHCl; Fluorescence; Sodium acetate 0.02 M; reversible: yes; structure 2ABD; whole UniProt chain shown

Variant	ddG of mutation (higher = less stable)	unfolding free energy
K33A	4.27 kJ/mol	28.7 kJ/mol
K33R	7.66 kJ/mol	25.4 kJ/mol
K33E	7.03 kJ/mol	26 kJ/mol
Y29F	4.44 kJ/mol	28.6 kJ/mol
Y29A	10.3 kJ/mol	22.7 kJ/mol
P45A	5.86 kJ/mol	27.2 kJ/mol
V13A	7.07 kJ/mol	25.9 kJ/mol
L16A	13 kJ/mol	20 kJ/mol
T36A	4.56 kJ/mol	28.5 kJ/mol
L26A	4.27 kJ/mol	28.7 kJ/mol
K53M K55M	-4.23 kJ/mol	37.2 kJ/mol
D22H	2.34 kJ/mol	30.7 kJ/mol
D22A	-1.76 kJ/mol	34.8 kJ/mol
F6A	10.5 kJ/mol	22.5 kJ/mol
Q34A	15.3 kJ/mol	17.7 kJ/mol
P20A	4.48 kJ/mol	28.5 kJ/mol
K53M	-0.753 kJ/mol	33.8 kJ/mol
V78A	4.77 kJ/mol	28.2 kJ/mol
Y74F	-1.13 kJ/mol	34.1 kJ/mol
Y74A	20.2 kJ/mol	12.8 kJ/mol
A35G	6.57 kJ/mol	26.4 kJ/mol
E68A	1.51 kJ/mol	31.5 kJ/mol
L81A	15.5 kJ/mol	17.5 kJ/mol
Y32N	6.36 kJ/mol	26.7 kJ/mol
K55A	3.6 kJ/mol	29.4 kJ/mol
